T1: OTC (E. coli ornithine transcarbamoylase, argI) (Escherichia coli, UniProt P04391)
T1 construct: full length, uncleaved 6xHis tag, pCA24N ASKA clone, expressed in BL21(DE3) Tuner; homotrimer of 333-residue subunits
T1 sequence (P04391 2-334): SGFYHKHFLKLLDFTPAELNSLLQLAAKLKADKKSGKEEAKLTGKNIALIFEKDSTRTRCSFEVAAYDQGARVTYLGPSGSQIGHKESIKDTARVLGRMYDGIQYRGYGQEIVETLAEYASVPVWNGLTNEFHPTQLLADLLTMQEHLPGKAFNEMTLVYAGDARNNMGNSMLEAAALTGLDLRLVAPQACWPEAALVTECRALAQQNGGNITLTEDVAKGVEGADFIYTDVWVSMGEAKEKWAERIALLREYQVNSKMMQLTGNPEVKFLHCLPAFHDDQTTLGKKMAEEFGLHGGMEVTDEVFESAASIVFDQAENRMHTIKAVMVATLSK


How the values were obtained:
[1] = biological target: T1, OTC (E. coli ornithine transcarbamoylase, argI); test: thermal shift (Sypro Orange); assay type: binding; conditions: absolute Tm, not dTm; 1 mM carbamoyl phosphate, 10 μM enzyme, 50 mM HEPES pH 8, 200 mM NaCl, 2 mM DTT
Text: thermal shift (Sypro Orange) on OTC (E. coli ornithine transcarbamoylase, argI)

purified protein [2] = substrate: NC(=O)OP(=O)(O)O; test: purified protein; assay type: biochemical, Escherichia coli; conditions: 50 mM Tris pH 8.5, 20 °C, 20 mM NaCl
purified protein [3] = substrate: NCCC[C@H](N)C(=O)O; test: purified protein; conditions: 50 mM Tris pH 8.5, 20 °C, 20 mM NaCl, carbamoyl phosphate 5 mM
[4] = biological target: the molecule itself; test: SEC-SAXS; in-line SEC-SAXS on a Superdex 200 5/150 GL column; enzyme at 4.3-5.5 mg/mL; apo state, and after incubation with 5 mM CP or 10 mM ORN; self-association of the enzyme (trimer)
[5] = ornithine 60 mM (variants with ORN KM above 3 mM)

Row | Molecule | enzyme +cp [1] [°C] | Km (purified protein [2]; ornithine 3 mM) [µM] | kcat (purified protein [2]; ornithine 3 mM) [s⁻¹] | kcat/Km (purified protein [2]; ornithine 3 mM) [M⁻¹ s⁻¹] | Km (purified protein [3]) [µM] | kcat (purified protein [3]) [s⁻¹] | kcat/Km (purified protein [3]) [M⁻¹ s⁻¹] | stoichiometry N [4] | Km (purified protein [2]; [5]) [µM] | kcat (purified protein [2]; [5]) [s⁻¹] | kcat/Km (purified protein [2]; [5]) [M⁻¹ s⁻¹]
1 | NC(=O)OP(=O)(O)O [CP, carbamoyl phosphate] | 70 ± 0.5 |  |  |  |  |  |  |  |  |  | 
2 | OTC (E. coli ornithine transcarbamoylase, argI) (Escherichia coli K-12; H273L) (protein, full length, uncleaved 6xHis tag, pCA24N ASKA clone, expressed in BL21(DE3) Tuner; homotrimer of 333-residue subunits) SGFYHKHFLKLLDFTPAELNSLLQLAAKLKADKKSGKEEAKLTGKNIALIFEKDSTRTRCSFEVAAYDQGARVTYLGPSGSQIGHKESIKDTARVLGRMYDGIQYRGYGQEIVETLAEYASVPVWNGLTNEFHPTQLLADLLTMQEHLPGKAFNEMTLVYAGDARNNMGNSMLEAAALTGLDLRLVAPQACWPEAALVTECRALAQQNGGNITLTEDVAKGVEGADFIYTDVWVSMGEAKEKWAERIALLREYQVNSKMMQLTGNPEVKFLLCLPAFHDDQTTLGKKMAEEFGLHGGMEVTDEVFESAASIVFDQAENRMHTIKAVMVATLSK |  | 930 ± 580 | 4.2 ± 1.8 | 5000 ± 1100 |  |  |  |  |  |  | 
3 | OTC (E. coli ornithine transcarbamoylase, argI) (Escherichia coli K-12; E300Q) (protein, full length, uncleaved 6xHis tag, pCA24N ASKA clone, expressed in BL21(DE3) Tuner; homotrimer of 333-residue subunits) SGFYHKHFLKLLDFTPAELNSLLQLAAKLKADKKSGKEEAKLTGKNIALIFEKDSTRTRCSFEVAAYDQGARVTYLGPSGSQIGHKESIKDTARVLGRMYDGIQYRGYGQEIVETLAEYASVPVWNGLTNEFHPTQLLADLLTMQEHLPGKAFNEMTLVYAGDARNNMGNSMLEAAALTGLDLRLVAPQACWPEAALVTECRALAQQNGGNITLTEDVAKGVEGADFIYTDVWVSMGEAKEKWAERIALLREYQVNSKMMQLTGNPEVKFLHCLPAFHDDQTTLGKKMAEEFGLHGGMQVTDEVFESAASIVFDQAENRMHTIKAVMVATLSK |  | 340 ± 110 | 4.6 ± 1 | 14000 ± 3300 | 330 ± 100 | 5.1 | 16000 |  |  |  | 
4 | OTC (E. coli ornithine transcarbamoylase, argI) (Escherichia coli K-12; R58A) (protein, full length, uncleaved 6xHis tag, pCA24N ASKA clone, expressed in BL21(DE3) Tuner; homotrimer of 333-residue subunits) SGFYHKHFLKLLDFTPAELNSLLQLAAKLKADKKSGKEEAKLTGKNIALIFEKDSTATRCSFEVAAYDQGARVTYLGPSGSQIGHKESIKDTARVLGRMYDGIQYRGYGQEIVETLAEYASVPVWNGLTNEFHPTQLLADLLTMQEHLPGKAFNEMTLVYAGDARNNMGNSMLEAAALTGLDLRLVAPQACWPEAALVTECRALAQQNGGNITLTEDVAKGVEGADFIYTDVWVSMGEAKEKWAERIALLREYQVNSKMMQLTGNPEVKFLHCLPAFHDDQTTLGKKMAEEFGLHGGMEVTDEVFESAASIVFDQAENRMHTIKAVMVATLSK |  | 280 ± 27 | 7.5 ± 1.8 | 27000 ± 7300 | 440 ± 92 | 8.2 | 19000 |  |  |  | 
5 | Escherichia coli ornithine transcarbamoylase (OTC), wild type, His-tagged (enzyme, E. coli, Anabolic ornithine transcarbamoylase of E. coli, argI gene, 333-residue subunit; Expressed from the ASKA plasmid pCA24N; also called WT OTC; anabolic OTC; source: E. coli BL21 (DE3) Tuner, purified (HisTrap FF, Superdex 200 SEC)) SGFYHKHFLKLLDFTPAELNSLLQLAAKLKADKKSGKEEAKLTGKNIALIFEKDSTRTRCSFEVAAYDQGARVTYLGPSGSQIGHKESIKDTARVLGRMYDGIQYRGYGQEIVETLAEYASVPVWNGLTNEFHPTQLLADLLTMQEHLPGKAFNEMTLVYAGDARNNMGNSMLEAAALTGLDLRLVAPQACWPEAALVTECRALAQQNGGNITLTEDVAKGVEGADFIYTDVWVSMGEAKEKWAERIALLREYQVNSKMMQLTGNPEVKFLHCLPAFHDDQTTLGKKMAEEFGLHGGMEVTDEVFESAASIVFDQAENRMHTIKAVMVATLSK |  | 270 ± 34 | 410 ± 20 | 1.5e+06 ± 130000 | 530 ± 55 | 440 | 830000 | 3 |  |  | 
6 | OTC (E. coli ornithine transcarbamoylase, argI) (Escherichia coli K-12; D141N) (protein, full length, uncleaved 6xHis tag, pCA24N ASKA clone, expressed in BL21(DE3) Tuner; homotrimer of 333-residue subunits) SGFYHKHFLKLLDFTPAELNSLLQLAAKLKADKKSGKEEAKLTGKNIALIFEKDSTRTRCSFEVAAYDQGARVTYLGPSGSQIGHKESIKDTARVLGRMYDGIQYRGYGQEIVETLAEYASVPVWNGLTNEFHPTQLLANLLTMQEHLPGKAFNEMTLVYAGDARNNMGNSMLEAAALTGLDLRLVAPQACWPEAALVTECRALAQQNGGNITLTEDVAKGVEGADFIYTDVWVSMGEAKEKWAERIALLREYQVNSKMMQLTGNPEVKFLHCLPAFHDDQTTLGKKMAEEFGLHGGMEVTDEVFESAASIVFDQAENRMHTIKAVMVATLSK |  |  |  |  | 17000 ± 5900 | 460 | 30000 |  | 1400 ± 450 | 360 ± 59 | 290000 ± 90000

Reference: article PMC7004355 (PLoS ONE, 2020)
